In assay [1] the target is T1, biotinylated avi-tagged canine PD-1 soluble protein (canine, biotin).
T1 chain: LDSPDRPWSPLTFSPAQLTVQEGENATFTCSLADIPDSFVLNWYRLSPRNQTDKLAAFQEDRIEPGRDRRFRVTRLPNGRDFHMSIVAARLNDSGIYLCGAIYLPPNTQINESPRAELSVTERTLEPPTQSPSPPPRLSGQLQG
Kind of assay: ELISA.

The target in assay [2] is canine PD-1 expressed on the surface of KTδ32 cells (Canis lupus familiaris, UniProt A0A090BAM7). Kind of assay: flow cytometry on cells.
Assay [3] has as its target recombinant canine PD-1 protein, His tag (Canis lupus familiaris, UniProt A0A090BAM7). In words: SPR. (SPR reads the build-up and loss of mass on a sensor chip optically.)

Consider four molecules from article PMC10793675 (mAbs, 2023).

Positions count from the first letter of the chain named.

B1: P4B1 soluble scFv (scFv, V domains shown)
VH: EVQLVQSGGDVVKPGGSLRLSCVASGFTFNTYGMNWVRQSPGKGLQWVAAIANSGSTYYADAVRGRFTISRDNAKNTLYLQMNSLRAEDAAIYYCASGIWGDWFYYWGQGTLVTVSS
VL: SSVLTQPPSVSVSLGQTATISCSGESLTKYYAQWFQQKPGQAPMLVIYKDTERPSGIPDRFSGSSSGNTHTLTISGARAEDEADYYCESAVSADAVVFGGGTHLTVL
Consider B1, for which the binding result in assay [1] was “binds”.

B2: P3C6 soluble scFv (scFv, V domains shown)
VH: EVQLVQSGGDLVKPGGSLRLSCMASGFTFSKYGMSWVRQSPGKGLQWVADIAANGGTYYTDAVKGRFTISRDNAKNALYLQMDDLRAEDTAVYYCARWGGAPFDYWGQGTLVTVSS
VL: EIVMTQSPASLSLSQEEKVTITCRASQSVSSYLAWYQQKPGQAPKLLIYGTSNRATGVPSRFSGSGSGTDFSFTISSLEPEDVAVYYCQQGLQYPITFGKGTHLEIK
Take B2: the binding result in assay [2] and in assay [1] was “binds” throughout.

B3: P3C6mut3.1 full-length canine IgGD (antibody, V domains shown)
VH: B2 VH with L11V, A77T, D83N, D84S
VL: B2 VL
As a reminder, the koff is the rate constant with which the complex falls apart. By kon is commonly meant a measure of how fast the partners come together. For the molecule B3, in assay [3], the binding half-life is 81 min, the koff was found to be 0.000143 s⁻¹ and the kon came to 131000 M⁻¹ s⁻¹.

B4: P3C6mut3.2 full-length canine IgGD (antibody, V domains shown)
VH: B2 VH with L11V, M23V, A77T, D83N, D84S
VL: B2 VL
For the molecule B4, the binding result in assay [2] is “binds”.
